Measured values published in publication PMC6893557 (2019).

Molecular target: pYEEI
Experiment: SPR

B1: Hck SH2 (protein)
chain: WFFKGISRKDAERQLLAPGNMLGSFMIRDSETTKGSYSLSVRDYDPRQGDTVKHYKIRTLDNGGFYISPRSTFSTLQELVDHYKKGNDGLCQKLSVPC
Kd: 42 µM
